# Reference: patent US20240010722A1 (published 2024)
# Numbering of substitutions follows the chain as printed.
# T1: human MAdCAM (human, UniProt Q13477 19-317, limits assumed)
# T1 construct: also called huMAdCAM; human MAdCAM-1
# T1 sequence (looked up): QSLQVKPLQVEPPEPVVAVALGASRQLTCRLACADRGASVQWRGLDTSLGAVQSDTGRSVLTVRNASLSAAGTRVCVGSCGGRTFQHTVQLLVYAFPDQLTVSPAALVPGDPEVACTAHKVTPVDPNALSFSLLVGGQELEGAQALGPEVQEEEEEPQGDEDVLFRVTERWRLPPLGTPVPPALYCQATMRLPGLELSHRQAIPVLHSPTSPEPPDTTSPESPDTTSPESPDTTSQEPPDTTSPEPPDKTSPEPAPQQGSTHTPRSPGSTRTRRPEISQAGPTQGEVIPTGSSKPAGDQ
# T2: mouse MAdCAM (mouse, UniProt Q61826 22-365, limits assumed)
# T2 construct: also called mouse MAdCAM-1; muMAdCAM
# T2 sequence (looked up): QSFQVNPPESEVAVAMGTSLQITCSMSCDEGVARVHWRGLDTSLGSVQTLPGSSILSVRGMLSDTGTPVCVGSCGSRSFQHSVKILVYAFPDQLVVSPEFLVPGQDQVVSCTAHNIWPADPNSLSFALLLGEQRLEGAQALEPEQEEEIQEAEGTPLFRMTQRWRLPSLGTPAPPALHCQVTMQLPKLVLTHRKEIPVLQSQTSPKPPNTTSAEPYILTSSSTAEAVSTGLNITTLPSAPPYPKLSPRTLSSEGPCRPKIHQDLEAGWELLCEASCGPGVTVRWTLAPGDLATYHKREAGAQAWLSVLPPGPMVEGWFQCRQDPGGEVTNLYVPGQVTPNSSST
# B1: MIAB141 (antibody, V domains shown)
# VH: EVQLLESGGGLVQPGGSLRLSCAASGFTFSDFWMHWVRQAPGKGLEWISYISGDSGYTNYADSVKGRFTISRDNSKNTLYLQMNSLRAEDTAVYYCARDRPYYYYMDVWGKGTTVTVSS
# VL: DIQMTQSPSSLSASVGDRVTITCRASQSISSYLNWYQQKPGKAPKLLIYAASSLQSGVPSRFSGSGSGTDFTLTISSLQPEDFATYYCQQYKSYPVTFGQGTKVEIK
# notes: tested with human Fc
# B2: MIAB182 (antibody, V domains shown)
# VH: B1 VH with D31S, F32Y, I48V, Y50A, D54S, S55G, Y57S, N59Y
# VL: B1 VL with S31R, Y32S, N34A
# notes: tested with human Fc; also called MIAB182-001
# B3: MIAB177 (antibody, V domains shown)
# VH: B1 VH with I48V, Y50A, D54S, S55G, Y57S, N59Y
# VL: B1 VL with I29V, S31R, Y32S, N34A
# notes: tested with human Fc; also called MIAB177-001
# B4: MIAB174 (antibody, V domains shown)
# VH: B1 VH with F32Y
# VL: B1 VL with I29V, S31R, Y32S, N34A
# notes: tested with human Fc; also called MIAB174-001
# B5: MIAB175 (antibody, V domains shown)
# VH: B1 VH with D31S, F32Y
# VL: B1 VL with I29V, S31R, Y32S, N34A
# notes: tested with human Fc; also called MIAB175-001
# B6: MIAB183 (antibody, V domains shown)
# VH: B1 VH with D31S, F32Y, I48V, Y50A, D54S, S55G, Y57S, N59Y
# VL: B1 VL with I29V, Y32S, N34A
# notes: tested with human Fc; also called MIAB183-001
# B7: MIAB178 (antibody, V domains shown)
# VH: B1 VH with D31S, F32Y, Y50A, D54S, Y57S, N59Y
# VL: B1 VL with I29V, S31R, Y32S, N34A
# notes: tested with human Fc; also called MIAB178-001
# B8: MIAB184 (antibody, V domains shown)
# VH: B1 VH with D31S, F32Y, I48V, Y50A, D54S, S55G, Y57S, N59Y
# VL: B1 VL with Y32S, N34A
# notes: tested with human Fc; also called MIAB184-001
# B9: PMAB19 (bispecific antibody, human IgG1, kappa)
# heavy: EVQLLESGGGLVQPGGSLRLSCAASGFTFSNSDMSWVRQAPGKGLEWVSGITISGGSTYYADSVKGRFTISRDNSKNTLYLQMNSLRAEDTAVYYCARGRGGSGWLDYWGQGTLVTVSSASTKGPSVFPLAPSSKSTSGGTAALGCLVKDYFPEPVTVSWNSGALTSGVHTFPAVLQSSGLYSLSSVVTVPSSSLGTQTYICNVNHKPSNTKVDKKVEPKSCDKTHTCPPCPAPEAAGAPSVFLFPPKPKDTLMISRTPEVTCVVVDVSHEDPEVKFNWYVDGVEVHNAKTKPREEQYNSTYRVVSVLTVLHQDWLNGKEYKCKVSNKALPAPIEKTISKAKGQPREPQVYTLPPSREEMTKNQVSLTCLVKGFYPSDIAVEWESNGQPENNYKTTPPVLDSDGSFFLYSKLTVDKSRWQQGNVFSCSVMHEALHNHYTQKSLSLSPGGGGGSGGGGSGGGGSEVQLLESGGGLVQPGGSLRLSCAASGFTFSSFWMHWVRQAPGKGLEWISYISGDSGYTNYADSVKGRFTISRDNSKNTLYLQMNSLRAEDTAVYYCARDRPYYYYMDVWGKGTTVTVSSGGGGSGGGGSGGGGSGGGGSDIQMTQSPSSLSASVGDRVTITCRASQSVSRSLAWYQQKPGKAPKLLIYAASSLQSGVPSRFSGSGSGTDFTLTISSLQPEDFATYYCQQYKSYPVTFGQGTKVEIK
# light: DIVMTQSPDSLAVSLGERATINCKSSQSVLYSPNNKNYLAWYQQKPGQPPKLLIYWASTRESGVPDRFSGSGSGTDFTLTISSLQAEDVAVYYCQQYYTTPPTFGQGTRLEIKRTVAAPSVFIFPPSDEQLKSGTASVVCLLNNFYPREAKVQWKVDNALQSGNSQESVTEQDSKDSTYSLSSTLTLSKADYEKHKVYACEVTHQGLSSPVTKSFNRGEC
# B10: PMAB13 (bispecific antibody, human IgG1, kappa)
# heavy: B9 heavy with F495Y, I511V, Y513A, D517S, S518G, Y520S, N522Y, V631I
# light: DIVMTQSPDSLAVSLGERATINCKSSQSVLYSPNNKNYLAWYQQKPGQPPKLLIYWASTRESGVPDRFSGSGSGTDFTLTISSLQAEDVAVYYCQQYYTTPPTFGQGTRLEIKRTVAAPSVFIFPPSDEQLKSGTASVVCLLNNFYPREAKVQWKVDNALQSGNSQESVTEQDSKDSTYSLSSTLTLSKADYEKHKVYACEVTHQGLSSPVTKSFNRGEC
# B11: PMAB11 (bispecific antibody, human IgG1, kappa)
# heavy: B9 heavy with F495Y, I511V, Y513A, D517S, S518G, Y520S, N522Y, V631I, R633S
# light: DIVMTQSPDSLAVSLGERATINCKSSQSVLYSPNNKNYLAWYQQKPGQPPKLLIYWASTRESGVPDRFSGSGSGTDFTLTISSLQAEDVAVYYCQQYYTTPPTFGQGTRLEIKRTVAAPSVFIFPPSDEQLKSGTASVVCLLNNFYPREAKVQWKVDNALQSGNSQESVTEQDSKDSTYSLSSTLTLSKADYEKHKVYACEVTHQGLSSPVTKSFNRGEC
# B12: PMAB47 (bispecific antibody, human IgG1, kappa)
# heavy: B9 heavy with S494D, Y566N
# light: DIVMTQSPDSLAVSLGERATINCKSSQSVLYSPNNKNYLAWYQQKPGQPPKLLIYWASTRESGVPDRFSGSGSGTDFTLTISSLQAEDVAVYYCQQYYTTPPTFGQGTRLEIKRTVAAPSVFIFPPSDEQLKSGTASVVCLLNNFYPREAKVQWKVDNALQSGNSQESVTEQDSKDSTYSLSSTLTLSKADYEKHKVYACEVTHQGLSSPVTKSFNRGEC
# B13: PMAB46 (bispecific antibody, human IgG1, kappa)
# heavy: B9 heavy with S494D, Y566G
# light: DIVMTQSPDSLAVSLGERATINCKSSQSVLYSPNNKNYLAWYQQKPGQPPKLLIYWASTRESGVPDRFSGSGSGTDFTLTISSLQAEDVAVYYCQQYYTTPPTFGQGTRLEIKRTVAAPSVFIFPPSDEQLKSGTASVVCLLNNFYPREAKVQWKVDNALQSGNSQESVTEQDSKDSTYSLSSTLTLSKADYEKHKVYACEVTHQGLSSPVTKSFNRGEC
# B14: PMAB23 (bispecific antibody, human IgG1, kappa)
# heavy: B9 heavy with S494D, I511V
# light: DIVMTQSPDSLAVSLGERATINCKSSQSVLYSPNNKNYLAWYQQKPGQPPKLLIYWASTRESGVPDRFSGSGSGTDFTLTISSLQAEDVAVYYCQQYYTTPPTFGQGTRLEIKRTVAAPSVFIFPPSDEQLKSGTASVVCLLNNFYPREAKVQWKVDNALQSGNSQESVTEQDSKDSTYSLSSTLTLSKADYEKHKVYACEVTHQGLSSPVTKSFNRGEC
# B15: PMAB49 (bispecific antibody, human IgG1, kappa)
# heavy: B9 heavy with S494D, Y568D
# light: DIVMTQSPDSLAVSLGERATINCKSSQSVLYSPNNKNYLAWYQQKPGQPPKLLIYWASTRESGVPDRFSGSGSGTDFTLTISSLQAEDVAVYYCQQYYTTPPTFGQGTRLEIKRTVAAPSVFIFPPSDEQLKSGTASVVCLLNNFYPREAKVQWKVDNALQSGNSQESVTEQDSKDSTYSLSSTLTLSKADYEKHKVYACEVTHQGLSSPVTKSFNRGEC
# B16: PMAB10 (bispecific antibody, human IgG1, kappa)
# heavy: B9 heavy with F495Y, I511V, Y513A, D517S, S518G, Y520S, N522Y, Y566G, V631I, R633S
# light: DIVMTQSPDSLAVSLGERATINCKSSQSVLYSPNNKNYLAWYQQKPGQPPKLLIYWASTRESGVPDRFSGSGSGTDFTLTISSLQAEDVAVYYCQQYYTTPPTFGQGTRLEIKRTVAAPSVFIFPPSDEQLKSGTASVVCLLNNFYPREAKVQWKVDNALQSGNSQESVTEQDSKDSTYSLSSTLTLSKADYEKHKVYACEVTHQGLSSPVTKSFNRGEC
# B17: PMAB41 (bispecific antibody, human IgG1, kappa)
# heavy: B9 heavy with S494D, K694Y
# light: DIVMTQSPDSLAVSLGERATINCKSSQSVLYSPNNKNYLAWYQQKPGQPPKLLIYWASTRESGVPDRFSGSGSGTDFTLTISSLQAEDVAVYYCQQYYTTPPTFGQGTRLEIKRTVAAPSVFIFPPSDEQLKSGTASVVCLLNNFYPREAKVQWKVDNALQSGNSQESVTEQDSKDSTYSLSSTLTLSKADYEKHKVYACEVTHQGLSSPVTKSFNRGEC
# B18: PMAB51 (bispecific antibody, human IgG1, kappa)
# heavy: B9 heavy with S494D, Y568K
# light: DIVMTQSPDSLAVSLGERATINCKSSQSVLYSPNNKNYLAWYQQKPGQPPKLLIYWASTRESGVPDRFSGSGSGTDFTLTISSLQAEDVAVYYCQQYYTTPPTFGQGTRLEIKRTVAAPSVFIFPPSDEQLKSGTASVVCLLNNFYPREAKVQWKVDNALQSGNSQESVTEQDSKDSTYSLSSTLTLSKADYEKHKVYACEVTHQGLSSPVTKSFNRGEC
# B19: PMAB43 (bispecific antibody, human IgG1, kappa)
# heavy: B9 heavy with S494D, V698R
# light: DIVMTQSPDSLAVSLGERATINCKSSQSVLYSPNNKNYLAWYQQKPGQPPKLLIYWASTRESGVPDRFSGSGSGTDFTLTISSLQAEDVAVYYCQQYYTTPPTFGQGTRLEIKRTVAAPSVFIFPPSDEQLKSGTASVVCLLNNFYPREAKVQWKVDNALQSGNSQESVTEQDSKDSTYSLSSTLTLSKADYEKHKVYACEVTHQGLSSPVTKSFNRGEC
# B20: PMAB20 (bispecific antibody, human IgG1, kappa)
# heavy: B9 heavy with S494D, F495Y
# light: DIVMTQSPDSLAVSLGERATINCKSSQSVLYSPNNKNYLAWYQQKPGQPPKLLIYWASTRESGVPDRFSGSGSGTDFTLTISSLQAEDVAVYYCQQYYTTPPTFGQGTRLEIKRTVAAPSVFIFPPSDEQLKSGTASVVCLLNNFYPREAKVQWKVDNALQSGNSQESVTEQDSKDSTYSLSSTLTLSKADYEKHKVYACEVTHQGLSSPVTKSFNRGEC
# B21: PMAB38 (bispecific antibody, human IgG1, kappa)
# heavy: B9 heavy with S494D, S634Y
# light: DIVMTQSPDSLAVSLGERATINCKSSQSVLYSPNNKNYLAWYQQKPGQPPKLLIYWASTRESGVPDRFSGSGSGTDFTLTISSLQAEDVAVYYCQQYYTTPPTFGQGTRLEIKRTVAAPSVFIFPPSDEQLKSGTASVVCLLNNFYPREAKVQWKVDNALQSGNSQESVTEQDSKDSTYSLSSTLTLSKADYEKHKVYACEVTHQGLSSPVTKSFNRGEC
# B22: PMAB24 (bispecific antibody, human IgG1, kappa)
# heavy: B9 heavy with S494D, Y513A
# light: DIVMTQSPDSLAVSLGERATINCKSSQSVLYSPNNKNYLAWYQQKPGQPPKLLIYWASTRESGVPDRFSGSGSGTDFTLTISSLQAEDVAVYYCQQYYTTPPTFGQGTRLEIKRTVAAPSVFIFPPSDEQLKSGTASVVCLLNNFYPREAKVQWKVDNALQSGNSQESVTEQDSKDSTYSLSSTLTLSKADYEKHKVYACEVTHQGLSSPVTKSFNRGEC
# B23: PMAB39 (bispecific antibody, human IgG1, kappa)
# heavy: B9 heavy with S494D, A636N
# light: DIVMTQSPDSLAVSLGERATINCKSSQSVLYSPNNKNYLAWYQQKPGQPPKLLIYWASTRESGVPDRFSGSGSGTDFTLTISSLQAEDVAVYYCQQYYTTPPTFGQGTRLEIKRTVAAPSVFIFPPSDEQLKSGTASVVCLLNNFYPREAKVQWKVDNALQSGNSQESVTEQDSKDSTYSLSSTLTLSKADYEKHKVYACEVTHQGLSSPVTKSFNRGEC
# B24: PMAB21 (bispecific antibody, human IgG1, kappa)
# heavy: B9 heavy with S494D, W496A
# light: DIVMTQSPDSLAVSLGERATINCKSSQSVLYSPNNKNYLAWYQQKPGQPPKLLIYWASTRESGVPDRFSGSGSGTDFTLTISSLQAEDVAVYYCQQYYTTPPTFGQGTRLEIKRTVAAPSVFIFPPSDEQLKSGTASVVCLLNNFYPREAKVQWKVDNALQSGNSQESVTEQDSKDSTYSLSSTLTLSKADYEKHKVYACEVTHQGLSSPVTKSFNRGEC
# B25: PMAB9 (bispecific antibody, human IgG1, kappa)
# heavy: B9 heavy with F495Y, Y513A, D517S, S518G, Y520S, N522Y, V631I
# light: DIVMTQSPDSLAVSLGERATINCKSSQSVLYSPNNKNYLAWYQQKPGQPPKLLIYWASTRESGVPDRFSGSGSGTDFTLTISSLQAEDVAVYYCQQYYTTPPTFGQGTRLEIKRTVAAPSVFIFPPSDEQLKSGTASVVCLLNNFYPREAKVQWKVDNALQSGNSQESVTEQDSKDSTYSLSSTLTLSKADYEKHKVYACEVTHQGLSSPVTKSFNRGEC
# B26: PMAB12 (bispecific antibody, human IgG1, kappa)
# heavy: B9 heavy with F495Y, I511V, Y513A, D517S, S518G, Y520S, N522Y, Y566G, V631I
# light: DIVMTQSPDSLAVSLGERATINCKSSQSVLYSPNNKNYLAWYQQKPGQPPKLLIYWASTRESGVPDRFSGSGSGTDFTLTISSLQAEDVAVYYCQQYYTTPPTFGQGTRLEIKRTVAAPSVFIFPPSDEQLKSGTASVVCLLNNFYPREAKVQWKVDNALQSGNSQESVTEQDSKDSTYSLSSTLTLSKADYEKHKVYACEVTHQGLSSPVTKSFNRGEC
# Key:
# [1] = target: T1, human MAdCAM; test: BLI (Octet), binder on anti-human Fc tips
# [2] = target: T2, mouse MAdCAM; test: BLI (Octet), binder on AHC tips
# Procedure, shortened: (§1)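 Kinetic rates and the dissociation constant come from a global one-to-one fit, performed in the Octet data analysis software, of binding measured on an Octet96 RED with anti-human IgG Fc biosensors. Test article at 10 μg/mL in assay buffer was captured on the tips for 240 s. MAdCAM-1, serially diluted over seven points from 200 nM down to 3.13 nM, then associated for 120 s before 120 s of dissociation in assay buffer.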
# [3] = target: T1, human MAdCAM; test: BLI (Octet), binder on AHC tips
# Procedure, shortened: as §1
binder,measurement,setting,value
B1,binding result,[1],no binding (tested: 150 nM)
B2,Kd,[1],119 nM
same,fold reduction of affinity against PRNT1,[1],10 fold
same,koff,[1],0.0267 s⁻¹
same,kon,[1],226000 M⁻¹ s⁻¹
B3,Kd,[1],218 nM
same,koff,[1],0.0851 s⁻¹
same,kon,[1],391000 M⁻¹ s⁻¹
B4,Kd,[1],21.8 nM
same,koff,[1],0.00969 s⁻¹
same,kon,[1],445000 M⁻¹ s⁻¹
B5,Kd,[1],22.6 nM
same,koff,[1],0.0106 s⁻¹
same,kon,[1],471000 M⁻¹ s⁻¹
B6,Kd,[1],362 nM
same,fold reduction of affinity against PRNT1,[1],20 fold
B7,Kd,[1],519 nM
same,koff,[1],0.22 s⁻¹
same,kon,[1],372000 M⁻¹ s⁻¹
B8,Kd,[1],563 nM
same,fold reduction of affinity against PRNT1,[1],40 fold
same,koff,[1],0.0818 s⁻¹
same,kon,[1],145000 M⁻¹ s⁻¹
B9,Kd,[2],112 nM
same,koff,[2],0.0177 s⁻¹
same,kon,[2],158000 M⁻¹ s⁻¹
same,response,[2],0.149
same,Kd,[3],31.2 nM
same,koff,[3],0.0168 s⁻¹
same,kon,[3],540000 M⁻¹ s⁻¹
B10,Kd,[3],132 nM
same,koff,[3],0.0717 s⁻¹
same,kon,[3],542000 M⁻¹ s⁻¹
B11,Kd,[3],466 nM
same,koff,[3],0.195 s⁻¹
same,kon,[3],419000 M⁻¹ s⁻¹
B12,Kd,[3],219 nM
same,koff,[3],0.072 s⁻¹
same,kon,[3],329000 M⁻¹ s⁻¹
B13,Kd,[3],37900 nM
same,koff,[3],0.309 s⁻¹
same,kon,[3],8160 M⁻¹ s⁻¹
B14,Kd,[2],141 nM
same,koff,[2],0.0178 s⁻¹
same,kon,[2],126000 M⁻¹ s⁻¹
same,response,[2],0.141
same,Kd,[3],110 nM
same,koff,[3],0.0389 s⁻¹
same,kon,[3],355000 M⁻¹ s⁻¹
B15,Kd,[3],142 nM
same,koff,[3],0.0125 s⁻¹
same,kon,[3],87900 M⁻¹ s⁻¹
B16,Kd,[3],146 nM
same,koff,[3],0.0967 s⁻¹
same,kon,[3],662000 M⁻¹ s⁻¹
B17,Kd,[2],119 nM
same,koff,[2],0.0246 s⁻¹
same,kon,[2],208000 M⁻¹ s⁻¹
same,response,[2],0.189
B18,Kd,[3],93.5 nM
same,koff,[3],0.00952 s⁻¹
same,kon,[3],115000 M⁻¹ s⁻¹
B19,binding result,[3],no binding (tested: 200 nM (top of the dilution series))
B20,Kd,[2],118 nM
same,koff,[2],0.0193 s⁻¹
same,kon,[2],163000 M⁻¹ s⁻¹
same,response,[2],0.153
same,Kd,[3],90.5 nM
same,koff,[3],0.0372 s⁻¹
same,kon,[3],411000 M⁻¹ s⁻¹
B21,binding result,[3],no binding (tested: 200 nM (top of the dilution series))
B22,Kd,[2],52.4 nM
same,koff,[2],0.00596 s⁻¹
same,kon,[2],114000 M⁻¹ s⁻¹
same,response,[2],0.0549
same,Kd,[3],33.2 nM
same,koff,[3],0.0134 s⁻¹
same,kon,[3],404000 M⁻¹ s⁻¹
B23,binding result,[3],no binding (tested: 200 nM (top of the dilution series))
B24,binding result,[3],no binding (tested: 300 nM (top of the dilution series))
B25,Kd,[3],159 nM
same,koff,[3],0.0725 s⁻¹
same,kon,[3],455000 M⁻¹ s⁻¹
B26,Kd,[3],63.3 nM
same,koff,[3],0.0464 s⁻¹
same,kon,[3],733000 M⁻¹ s⁻¹
